These results are taken from patent publication US20100316665A1.

Assay [1] deals with T1, OmpC porin purified from Salmonella typhi (Salmonella enterica subsp. enterica serovar Typhi), A0A0H3.
T1 chain: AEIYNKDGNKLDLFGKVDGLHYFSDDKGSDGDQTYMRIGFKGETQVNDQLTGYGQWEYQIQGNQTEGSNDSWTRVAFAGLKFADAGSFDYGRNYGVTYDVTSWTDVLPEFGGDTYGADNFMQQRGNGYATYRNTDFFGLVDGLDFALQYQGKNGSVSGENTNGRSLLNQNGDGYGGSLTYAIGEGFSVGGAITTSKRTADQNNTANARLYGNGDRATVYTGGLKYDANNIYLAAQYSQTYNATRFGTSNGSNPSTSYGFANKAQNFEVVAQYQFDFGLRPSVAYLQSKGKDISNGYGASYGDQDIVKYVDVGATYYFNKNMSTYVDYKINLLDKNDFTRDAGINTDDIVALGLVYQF
The experiment in a line: phage display panning on OmpC, frequency of occurrence among sequenced binders.

In assay [2] the target is T2, OmpF porin purified from Salmonella typhi (Salmonella enterica subsp. enterica serovar Typhi), Q56113.
T2 chain: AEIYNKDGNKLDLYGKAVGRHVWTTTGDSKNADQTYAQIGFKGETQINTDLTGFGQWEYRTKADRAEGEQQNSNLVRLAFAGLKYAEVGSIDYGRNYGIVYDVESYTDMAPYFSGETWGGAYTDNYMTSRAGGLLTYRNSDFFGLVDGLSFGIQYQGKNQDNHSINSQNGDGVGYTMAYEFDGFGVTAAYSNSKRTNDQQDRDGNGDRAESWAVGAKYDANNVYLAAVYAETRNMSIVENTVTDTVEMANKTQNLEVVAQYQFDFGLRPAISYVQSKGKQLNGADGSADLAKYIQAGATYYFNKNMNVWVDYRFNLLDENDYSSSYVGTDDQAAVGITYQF
The experiment in a line: phage display panning on OmpF, frequency of occurrence among sequenced binders.

B1: affinity peptide TATYLLD (peptide)
peptide: TATYLLD
modifications: not checked
The molecule B1 came in with a Frequency (fraction of sequenced phage) in assay [1] of 0.125.

B2: affinity peptide FHENWPS (peptide)
peptide: FHENWPS
modifications: not checked
For the molecule B2, the Frequency (fraction of sequenced phage) in assay [2] came to 0.6.

B3: affinity peptide SLSLIQT (peptide)
peptide: SLSLIQT
modifications: not checked
On to B3, for which, in assay [1], the Frequency (fraction of sequenced phage) stood at 0.125.

B4: affinity peptide FHEFWPT (peptide)
peptide: FHEFWPT
modifications: not checked
In turn, B4 gave a Frequency (fraction of sequenced phage) in assay [2] of 0.4.

B5: affinity peptide EAKGLIR (peptide)
peptide: EAKGLIR
modifications: not checked
B5 had a Frequency (fraction of sequenced phage) in assay [1] of 0.75.
